From US20250147035A1, “METHODS FOR DETECTION OF POST-TRANSLATIONAL MODIFICATIONS” (Quantum-Si Incorporated, priority 2023, published 2025)
Like-named read-outs stand apart in the source and are kept apart here. Primed or numbered codes have the meaning given here. Where no end group is shown, it is not given here. [ ]: non-standard residue; d: D form. pT = C[C@@H](OP(=O)(O)O)[C@H](N)C(=O)O; pS = N[C@@H](COP(=O)(O)O)C(=O)O; Biotin′ = not defined here

How the values were obtained:
pSAKLDEESILKQ-Biotin [1] = assay: Octet binding assay of PTM-specific affinity reagent candidates, pSA peptide; settings: fixed concentration of reagent
From the text: (§1) This Example characterizes an exemplary phosphorylated threonine recognizer for use in methods of the disclosure.

SAKLDEESILKQ-Biotin = assay: Octet binding assay of PTM-specific affinity reagent candidates, SA control peptide; design: unit not given here; settings: fixed concentration of reagent
From the text: as §1

[2] = target: p…; assay: Octet (BLI), sensors coated with peptide
QRFpYLAYPDDD-FITC = assay: bulk fluorescence polarization, 0.5 µM PM49, FITC-labeled peptide
[3] = target: pT-…; assay: Octet (BLI), sensors coated with peptide
EFLN-pT-RFYK = assay: Octet (BLI), sensors coated with peptide
p…-Biotin [4] = target: T1, p…-Biotin; assay: Octet (BLI), fixed reagent concentration
T1 sequence (peptide, phosphothreonine at 1; C-terminal Biotin): TAKLDEESILKQ

…-Biotin = target: T2, …-Biotin; assay: Octet (BLI), fixed reagent concentration
T2 sequence (peptide, C-terminal Biotin): SAKLDEESILKQ

p…-Biotin [5] = target: T3, p…-Biotin; assay: Octet (BLI), fixed reagent concentration; remark: listed apart in the source
T3 sequence (peptide, phosphoserine at 1; C-terminal Biotin): SAKLDEESILKQ

LAQYLAYPDDDK = assay: On-chip fluorescence signature of PTM-specific affinity reagent binding before sequencing (Example 1), control polypeptide; settings: polypeptide without PTM, collected for 30 minutes
Method: (§2) A control polypeptide ([…]) and a model polypeptide comprising a phospho-tyrosine (LAQ-pY-[…]) were tested in this Example. Each polypeptide was first immobilized onto independent surfaces of a chip. A post-translational modification-specific (PTM-specific) affinity reagent that binds to phospho-tyrosine (PS33 (SEQ ID NO: 35)) and comprised a fluorescent label was then added to the chip and allowed to contact the polypeptides. […] The chip was then washed to remove the PTM-specific affinity reagent. A protein sequencing analysis of the polypeptides was then performed. A mixture of labeled terminal amino acid recognition molecules was added to the chip and allowed to incubate for 15 minutes. After 15 minutes, a mixture of cleaving reagents (a mixture of aminopeptidases) was added to the chip. During these steps, a series of signal pulses indicative of association of the one or more terminal amino acid recognition molecules with successive amino acids exposed at a terminus of each polypeptide were collected while each polypeptide was being degraded.

LAQ-pY-LAYPDDDK = assay: On-chip fluorescence signature of PTM-specific affinity reagent binding before sequencing (Example 1); settings: polypeptide with PTM, collected for 30 minutes
Method: as §2

p[…]-Biotin [6] = assay: Octet binding assay of PTM-specific affinity reagent candidates, pTQR peptide; settings: fixed concentration of reagent
Method: This Example characterizes an exemplary phosphorylated threonine recognizer for use in methods of the disclosure. Octet binding assays at a fixed concentration of PTM-specific affinity reagent candidates were evaluated for binding with phospho-threonine, phospho-serine containing peptides (p[…]-Biotin; p[…]-Biotin; p[…]-Biotin), and control peptides without modifications ([…]-Biotin; […]-Biotin).

p[…]-Biotin [7] = assay: Octet binding assay of PTM-specific affinity reagent candidates, pTA peptide; settings: fixed concentration of reagent
From the text: as §1

TAKLDEESILKQ-Biotin = target: T4, TAKLDEESILKQ-Biotin; assay: Octet (BLI), fixed reagent concentration;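 further: octet binding of candidate PTM-specific affinity reagents, each at one fixed concentration, to biotinylated phospho-Thr or phospho-Ser peptides, with unmodified biotinylated peptides serving as controls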
T4 peptide: TAKLDEESILKQ-{Biotin′}
Method: (§3) Octet binding assays at a fixed concentration of PTM-specific affinity reagent candidates were evaluated for binding with phospho-threonine, phospho-serine containing peptides (p[sequence]-Biotin; p[sequence]-Biotin; p[sequence]-Biotin), and control peptides without modifications ([sequence]-Biotin; [sequence]-Biotin).

pSAKLDEESILKQ-Biotin [8] = target: T5, pSAKLDEESILKQ-Biotin; assay: Octet (BLI), fixed reagent concentration;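 further: octet binding of candidate PTM-specific affinity reagents, each at one fixed concentration, to biotinylated phospho-Thr or phospho-Ser peptides, with unmodified biotinylated peptides serving as controls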
T5 peptide: [pS]AKLDEESILKQ-{Biotin′}
Method: as §3

p…-Biotin [9] = assay: Octet (BLI), fixed reagent concentration; remark: listed apart in the source
pTAKLDEESILKQ-Biotin = target: T6, pTAKLDEESILKQ-Biotin; assay: Octet (BLI), fixed reagent concentration;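 further: octet binding of candidate PTM-specific affinity reagents, each at one fixed concentration, to biotinylated phospho-Thr or phospho-Ser peptides, with unmodified biotinylated peptides serving as controls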
T6 peptide: [pT]AKLDEESILKQ-{Biotin′}
Method: as §3

## PM06: Human/14-3-3 protein zeta/delta, SEQ ID NO: 6
pSAKLDEESILKQ-Biotin [1]
  Octet binding assay response, pSA: 0.1
SAKLDEESILKQ-Biotin; SA = SAKLDEESILKQ-Biotin (control)
  Octet binding assay response, SA: 0.1

## PM49 (ABCAM® Biotin Anti-Phosphotyrosine antibody [EPR16871])
[2]
  Octet shift: 10.2
QRFpYLAYPDDD-FITC
  fold tighter binding affinity against an N-terminal phospho-tyrosine: 2 fold

## PM12 (Mycobacterium tuberculosis/FhaA) (from UniProt P71590 430-527)
[3]
  Octet shift: 4.4
EFLN-pT-RFYK
  Octet shift: 6.8
p…-Biotin [4]
  Octet binding assay response: 7.1
…-Biotin
  Octet binding assay response: 0.6

## PM06 (Human/14-3-3 protein zeta/delta) (from UniProt P63103 1-245)
…-Biotin
  Octet binding assay response: 0.1
p…-Biotin [5]
  Octet binding assay response: 0.1

B1: PS33: SH domanin Fyn Triple mutant, SEQ ID NO: 35; PTM-specific affinity reagent that specifically binds to phospho-tyrosine (protein)
chain: MGAMDSIQAEEWYFGKLGRKDAERQLLSFGNPRGTFLIRESETVKGAYALSIRDWDDMKGDHVKHYLIRKLDNGGYYITTRAQFETLQQLVQHYSERAAGLSSRLVVPSHK
LAQYLAYPDDDK
  fluorescence signature representative of binding interaction(s): no fluorescence signature
LAQ-pY-LAYPDDDK
  fluorescence signature representative of binding interaction(s): strong fluorescence signature

B2: PM13 (Saccharomyces cerevisiae/FHA1) (other)
chain: MENITQPTQQSTQATQRFLIEKFSQEQIGENIVCRVICTTGQIPIRDLSADISQVLKEKRSIKKVWTFGRNPACDYHLGNISRLSNKHFQILLGEDGNLLLNDISTNGTWLNGQKVEKNSNQLLSQGDEITVGVGVESDILSLVIFINDKFKQCLEQNKVDRIRSNLKNTSKIASPGLTSSTASSMVANKTGIFKDFSIIDEVVGQGAFATVKKAIERTTGKTFAVKIISKRKVIGNMDGVTRELEVLQKLNHPRIVRLKGFYEDTESYYMVMEFVSGG
p[…]-Biotin [6]
  Octet binding assay response, pTQR: 3.2
p[…]-Biotin [7]
  Octet binding assay response, pTA: 1.8
SAKLDEESILKQ-Biotin; SA = […]-Biotin (control)
  Octet binding assay response, SA: 0.2
p…-Biotin [4]; pTA phosphothreonine peptide
  Octet binding assay response: 1.8
p…-Biotin [4]; pTQR phosphothreonine peptide
  Octet binding assay response: 3.2
…-Biotin
  Octet binding assay response: 0.2
TAKLDEESILKQ-Biotin
  Octet binding assay response: 0.3
pSAKLDEESILKQ-Biotin [8]
  Octet binding assay response: 0.3

B3: PM05 (Human/14-3-3 protein beta/alpha) (other)
chain: MTMDKSELVQKAKLAEQAERYDDMAAAMKAVTEQGHELSNEERNLLSVAYKNVVGARRSSWRVISSIEQKTERNEKKQQMGKEYREKIEAELQDICNDVLELLDKYLIPNATQPESKVFYLKMKGDYFRYLSEVASGDNKQTTVSNSQQAYQEAFEISKKEMQPTHPIRLGLALNFSVFYYEILNSPEKACSLAKTAFDEAIAELDTLNEESYKDSTLIMQLLRDNLTLWTSENQGDEGDAGEGEN
p…-Biotin [9]
  Octet binding assay response: 0.2
…-Biotin
  Octet binding assay response: 0.2
pTAKLDEESILKQ-Biotin
  Octet binding assay response: 0.2
TAKLDEESILKQ-Biotin
  Octet binding assay response: 0.2
pSAKLDEESILKQ-Biotin [8]
  Octet binding assay response: 0.2

B4: PM18 (Human/MINT) (other)
chain: MVDMVQLLKKYPIVWQGLLALKNDTAAVQLHFVSGNNVLAHRSLPLSEGGPPLRIAQRMRLEATQLEGVARRMTVETDYCLLLALPCGRDQEDVVSQTESLKAAFITYLQAKQAAGIINVPNPGSNQPAYVLQIFPPCEFSESHLSRLAPDLLASISNISPHLMIVIASV
p[…]-Biotin [6]
  Octet binding assay response, pTQR: 1.6
p[…]-Biotin [7]
  Octet binding assay response, pTA: 0.7
SAKLDEESILKQ-Biotin; SA = […]-Biotin (control)
  Octet binding assay response, SA: 0.9
p…-Biotin [4]; pTA phosphothreonine peptide
  Octet binding assay response: 0.7
p…-Biotin [4]; pTQR phosphothreonine peptide
  Octet binding assay response: 1.6
…-Biotin
  Octet binding assay response: 0.9
p…-Biotin [5]
  Octet binding assay response: 0.6
TAKLDEESILKQ-Biotin
  Octet binding assay response: 0.6

B5: PM03 (Human/14-3-3 protein eta) (other)
chain: MGDREQLLQRARLAEQAERYDDMASAMKAVTELNEPLSNEDRNLLSVAYKNVVGARRSSWRVISSIEQKTMADGNEKKLEKVKAYREKIEKELETVCNDVLSLLDKFLIKNCNDFQYESKVFYLKMKGDYYRYLAEVASGEKKNSVVEASEAAYKEAFEISKEQMQPTHPIRLGLALNFSVFYYEIQNAPEQACLLAKQAFDDAIAELDTLNEDSYKDSTLIMQLLRDNLTLWTSDQQDEEAGEGN
p…-Biotin [9]
  Octet binding assay response: 0.4
…-Biotin
  Octet binding assay response: 0.3
pTAKLDEESILKQ-Biotin
  Octet binding assay response: 0.2
TAKLDEESILKQ-Biotin
  Octet binding assay response: 0.2
pSAKLDEESILKQ-Biotin [8]
  Octet binding assay response: 0.2

B6: PM02 (Human/14-3-3 protein theta) (other)
chain: MEKTELIQKAKLAEQAERYDDMATCMKAVTEQGAELSNEERNLLSVAYKNVVGGRRSAWRVISSIEQKTDTSDKKLQLIKDYREKVESELRSICTTVLELLDKYLIANATNPESKVFYLKMKGDYFRYLAEVACGDDRKQTIDNSQGAYQEAFDISKKEMQPTHPIRLGLALNFSVFYYEILNNPELACTLAKTAFDEAIAELDTLNEDSYKDSTLIMQLLRDNLTLWTSDSAGEECDAAEGAEN
p…-Biotin [9]
  Octet binding assay response: 0.5
…-Biotin
  Octet binding assay response: 0.3
pTAKLDEESILKQ-Biotin
  Octet binding assay response: 0.3
TAKLDEESILKQ-Biotin
  Octet binding assay response: 0.3
pSAKLDEESILKQ-Biotin [8]
  Octet binding assay response: 0.3
